Measured values reported in patent US10597433B2, “Peptides and combination of peptides for use in immunotherapy against small cell lung cancer and other cancers” (Immatics Biotechnologies GmbH, priority 2015, dated 2020).

Target: HLA-A*02:01 (Homo sapiens, UniProt P04439, D140Y/D185E/D98H/E176V/E277Q/G131W/G231S/I119V/I121R/I166T/I218V/L300P/L318F/N151K/N90K/P208A/P217A/Q86G/Q94H/R138H/R169H/T345S)
Test: MHC binding assay: UV-ligand exchange with ELISA detection of β2m of stabilized MHC complexes
Conditions: binding to HLA-A*02:01
Excerpt: Candidate peptides for T cell based therapies according to the present invention were further tested for their MHC binding capacity (affinity). The individual peptide-MHC complexes were produced by UV-ligand exchange, where a UV-sensitive peptide is cleaved upon UV-irradiation, and exchanged with the peptide of interest as analyzed. Only peptide candidates that can effectively bind and stabilize the peptide-receptive MHC molecules prevent dissociation of the MHC complexes. To determine the yield of the exchange reaction, an ELISA was performed based on the detection of the light chain (β2m) of stabilized MHC complexes. The assay was performed as generally described in Rodenko et al. (Rodenko et al., 2006).
96 well MAXISorp plates (NUNC) were coated over night with 2 μg/ml streptavidin in PBS at room temperature, washed 4× and blocked for 1 h at 37° C. in 2% BSA containing blocking buffer. Refolded HLA-A*02:01/MLA-001 monomers served as standards, covering the range of 15-500 ng/ml. Peptide-MHC monomers of the UV-exchange reaction were diluted 100 fold in blocking buffer. Samples were incubated for 1 h at 37° C., washed four times, incubated with 2 μg/ml HRP conjugated anti-β2m for 1 h at 37° C., washed again and detected with TMB solution that is stopped with […]. Absorption was measured at 450 nm. Candidate peptides that show a high exchange yield (preferably higher than 50%, most preferred higher than 75%) are generally preferred for a generation and production of antibodies or fragments thereof, and/or T cell receptors or fragments thereof, as they show sufficient avidity to the MHC molecules and prevent dissociation of the MHC complexes.

Peptide exchange (MHC class I binding score, peptide exchange yield) | Substance
+++ (≥50 = +++) | 36 (RMDGAVTSV; listed as Homo sapiens) [compound 36]
+++ (≥50 = +++) | 32 (ALTSLELEL; listed as Homo sapiens) [compound 32]
++++ (≥75% = ++++) | 27 (SLDIITITV; listed as Homo sapiens) [compound 27]
++++ (≥75% = ++++) | 108 (ILLDDQFQPKL; listed as Homo sapiens) [compound 108]
+++ (≥50 = +++) | 21 (TMEEMIFEV; listed as Homo sapiens) [compound 21]
++++ (≥75% = ++++) | 60 (VVSGATETL; listed as Homo sapiens) [compound 60]
++++ (≥75% = ++++) | 55 (LLIADNPQL; listed as Homo sapiens) [compound 55]
+++ (≥50 = +++) | 65 (VMYDLITEL; listed as Homo sapiens) [compound 65]
+++ (≥50 = +++) | 15 (SLLTAISEV; listed as Homo sapiens) [compound 15]
+++ (≥50 = +++) | 50 (FLLSQIVAL; listed as Homo sapiens) [compound 50]
++++ (≥75% = ++++) | 95 (ALYSKGILL; listed as Homo sapiens) [compound 95]
+++ (≥50 = +++) | 64 (VLFHQLQEI; listed as Homo sapiens) [compound 64]
+++ (≥50 = +++) | 83 (KLLEIDIDGV; listed as Homo sapiens) [compound 83]
++++ (≥75% = ++++) | 117 (FLLDSAPLNV; listed as Homo sapiens) [compound 117]
++++ (≥75% = ++++) | 31 (RLLQDPVGV; listed as Homo sapiens) [compound 31]
+++ (≥50 = +++) | 74 (FLDSLSPSV; listed as Homo sapiens) [compound 74]
+++ (≥50 = +++) | 90 (TLVDNISTMAL; listed as Homo sapiens) [compound 90]
+++ (≥50 = +++) | 63 (LLMSTENEL; listed as Homo sapiens) [compound 63]
+++ (≥50 = +++) | 42 (GLLEDERALQL; listed as Homo sapiens) [compound 42]
+++ (≥50 = +++) | 19 (VLLTTAVEV; listed as Homo sapiens) [compound 19]
+++ (≥50 = +++) | 14 (ILIETKLVL; listed as Homo sapiens) [compound 14]

Peptide exchange (MHC class I binding score, peptide exchange yield) | Substance
++++ (≥75% = ++++) | 59 (VLLSGLTEV; listed as Homo sapiens) [compound 59]
+++ (≥50 = +++) | 30 (KMLGLTVSL; listed as Homo sapiens) [compound 30]
+++ (≥50 = +++) | 41 (KAYQELLATV; listed as Homo sapiens) [compound 41]
+++ (≥50 = +++) | 51 (ILDEAGVKYFL; listed as Homo sapiens) [compound 51]
++++ (≥75% = ++++) | 105 (SMYDKVLML; listed as Homo sapiens) [compound 105]
+++ (≥50 = +++) | 122 (SMMPDELLTSL; listed as Homo sapiens) [compound 122]
+++ (≥50 = +++) | 86 (KVIDYVPGI; listed as Homo sapiens) [compound 86]
++ (≥20% = ++) | 9 (AAAPGEALHTA; listed as Homo sapiens) [compound 9]
+++ (≥50 = +++) | 23 (YQIDTVINL; listed as Homo sapiens) [compound 23]
++++ (≥75% = ++++) | 88 (TLHRETFYL; listed as Homo sapiens) [compound 88]
++++ (≥75% = ++++) | 96 (NLLKLIAEV; listed as Homo sapiens) [compound 96]
++++ (≥75% = ++++) | 87 (LLQNNLPAV; listed as Homo sapiens) [compound 87]
++++ (≥75% = ++++) | 106 (KMPDDVWLV; listed as Homo sapiens) [compound 106]
++++ (≥75% = ++++) | 52 (ILASFMLTGV; listed as Homo sapiens) [compound 52]
+++ (≥50 = +++) | 71 (FIFEQVQNV; listed as Homo sapiens) [compound 71]
++++ (≥75% = ++++) | 44 (ALIVGIPSV; listed as Homo sapiens) [compound 44]
+++ (≥50 = +++) | 34 (LVFEGIMEV; listed as Homo sapiens) [compound 34]
+++ (≥50 = +++) | 81 (LLAEIGAVTLV; listed as Homo sapiens) [compound 81]
+++ (≥50 = +++) | 85 (FAYDGKDYLTL; listed as Homo sapiens) [compound 85]
+++ (≥50 = +++) | 43 (YLWSEVFSM; listed as Homo sapiens) [compound 43]
++++ (≥75% = ++++) | 53 (LLSEEHITL; listed as Homo sapiens) [compound 53]

Peptide exchange (MHC class I binding score, peptide exchange yield) | Substance
++++ (≥75% = ++++) | 5 (SLQSLIISV; listed as Homo sapiens) [compound 5]
+++ (≥50 = +++) | 75 (SLDLHVPSL; listed as Homo sapiens) [compound 75]
++++ (≥75% = ++++) | 58 (VLLNINGIDL; listed as Homo sapiens) [compound 58]
+ (≥10% = +) | 126 (AAASLIRLV; listed as Homo sapiens) [compound 126]
+++ (≥50 = +++) | 112 (LLLPGVIKTV; listed as Homo sapiens) [compound 112]
+++ (≥50 = +++) | 7 (GLLGDIAIHL; listed as Homo sapiens) [compound 7]
+++ (≥50 = +++) | 101 (AMNSQILEV; listed as Homo sapiens) [compound 101]
++++ (≥75% = ++++) | 78 (RIIDPEDLKALL; listed as Homo sapiens) [compound 78]
+++ (≥50 = +++) | 12 (MLFEGLDLVSA; listed as Homo sapiens) [compound 12]
+++ (≥50 = +++) | 91 (KLQDGVHII; listed as Homo sapiens) [compound 91]
+++ (≥50 = +++) | 123 (KLDKNPNQV; listed as Homo sapiens) [compound 123]
+++ (≥50 = +++) | 47 (GLLEALLKI; listed as Homo sapiens) [compound 47]
+++ (≥50 = +++) | 66 (YLNLISTSV; listed as Homo sapiens) [compound 66]
+++ (≥50 = +++) | 118 (KLPSFLANV; listed as Homo sapiens) [compound 118]
+++ (≥50 = +++) | 46 (ALWVAVPKA; listed as Homo sapiens) [compound 46]
++++ (≥75% = ++++) | 28 (ILVSQLEQL; listed as Homo sapiens) [compound 28]
+++ (≥50 = +++) | 56 (SLFSQMGSQYEL; listed as Homo sapiens) [compound 56]
++ (≥20% = ++) | 45 (SLSGEIILHSV; listed as Homo sapiens) [compound 45]
+++ (≥50 = +++) | 61 (YQAPYFLTV; listed as Homo sapiens) [compound 61]
++++ (≥75% = ++++) | 57 (VLIGDVLVAV; listed as Homo sapiens) [compound 57]
